For this experiment, the target named is T1, Vaccinia Virus, Western Reserve, L1R Protein with C-Terminal Histidine Tag (Vaccinia virus, strain Western Reserve, UniProt P07612).
T1 construct: also called L1 antigen; recombinant L1 antigen; source: obtained through BEI Resources (NR-2625), recombinant from baculovirus
The experiment in a line: SPR; […] (10 µg/ml, […], dissociation 600 s; […]. As to conditions: both partners purified. In general terms: Surface plasmon resonance follows binding to a sensor surface in real time, without labels.

Substitutions are numbered along the chain they refer to.

Experimental findings from article PMC4161341 (PLoS ONE, 2014) are described below.

B1: L1-E2 (VHH)
VHH: EVQLQASGGGLVQPGGSLRLSCAASGFSISSATMSWVRQAPGKGLEWVSTVQDGAGIISSADSAKARFTISRDSAKNTLYLQMNSLKPEDTAVYYCRTVVFGRILRGQGTQVTVSS
notes: llama sdAb, only member of the L1-E2 family; also called sdAb L1-E2
In general, Kd refers to the concentration at which binding is half-saturated. For orientation: koff means a measure of how fast the partners let go of each other. As a reminder, the kon is a measure of how fast the partners come together. A lower kon goes with slow association. B1 returned a dissociation constant (Kd) of 0.7 nM, a koff of 0.0045 s⁻¹ and a kon of 6.5e+06 M⁻¹ s⁻¹.

B2: L1-C5 (VHH)
VHH: EVQLQASGGGLVQAGGSLRLSCIASGRAFSTTNMGWFRQAPGKEREFVTRVNWSGGVTSYADSVKGRFTLSRDYTKNTVYLQMNSLKPEDTAVYYCAGSTVWSTDRAHYNYWGQGTQVTVSS
notes: llama sdAb of the L1-H7 family; has a single N to Y substitution in framework 3 not seen in other members of the family; also called sdAb L1-C5
For B2, the dissociation constant Kd worked out at 4 nM, the koff was 0.032 s⁻¹ and the on-rate (kon) is 7.2e+06 M⁻¹ s⁻¹.

B3: L1-E6 (VHH)
VHH: B2 VHH with S63P, Y74N, R106G
notes: llama sdAb of the L1-H7 family; also called sdAb L1-E6
Consider B3, for which the Kd came out at 2.6 nM, the koff is 0.001 s⁻¹ and the kon is 390000 M⁻¹ s⁻¹.

B4: L1-G2+ (VHH)
VHH: B2 VHH with I23T, T49C, L70C, Y74N, N84D, A107K
notes: also called disulfide mutant of L1-G2
The molecule B4 yielded a Kd of 1 nM, an off-rate constant (koff) of 0.0021 s⁻¹ and an on-rate constant (kon) of 2.1e+06 M⁻¹ s⁻¹.

B5: L1-H7 (VHH)
VHH: B2 VHH with Y74N, Q114R
notes: llama sdAb of the L1-H7 family; also called sdAb L1-H7
B5 registered a Kd of 1.5 nM, a koff of 0.00087 s⁻¹ and an on-rate (kon) of 560000 M⁻¹ s⁻¹.

B6: L1-G2 (VHH)
VHH: B2 VHH with I23T, Y74N, N84D, A107K
notes: llama sdAb of the L1-H7 family; also called sdAb L1-G2
Consider B6, for which binding was characterised by a dissociation constant (Kd) of 1.9 nM, the koff was determined as 0.001 s⁻¹ and the on-rate constant (kon) was found to be 530000 M⁻¹ s⁻¹.

B7: L1-H2 (VHH)
VHH: EVQLQASGGGLVQAGGSLRLSCAASGRTLSTGVMGWFRQLPGKEREFVARITWIAGSSLYADSVKGRFTISRDNTNNTVYLQMNALKPEDTAVYYCAANLAGNSWPYKTPMDYDSWGQGTQVTVSS
notes: llama sdAb of the L1-H2 family; also called sdAb L1-H2
For the molecule B7, binding was put at a Kd of 1.8 nM, the koff worked out at 0.0021 s⁻¹ and the association rate constant (kon) came out at 1.2e+06 M⁻¹ s⁻¹.
